Measurements as given in patent publication US20230220038A1, “BRI2 BRICHOS DOMAIN FOR DELIVERY OF PROTEINS INTO CNS NEURONS” (ALPHABETA AB, priority 2021, published 2023).

B1: rh Bri2 BRICHOS-AU1: Rh Bri2 BRICHOS domain, residues 113-231 of Bri2, linked to an AU1 tag at the C-terminal end (SEQ ID NO: 11) (protein, listed as Homo sapiens)
chain: GSQTIEENIKIFEEEEVEFISVPVPEFADSDPANIVHDFNKKLTAYLDLNLDKCYVIPLNTSIVMPPRNLLELLINIKAGTYLPQSYLIHEHMVITDRIENIDHLGFFIYRLCHDKETYKLDTYRYI
modifications: DOMAIN 3..121 Rh Bri2 BRICHOS domain; DOMAIN 122..127 AU1 tag
B2: Bri2 BRICHOS monomers: recombinant human Bri2 BRICHOS (113-231) wild-type, monomeric species (SEQ ID NO: 2) (protein, listed as Homo sapiens)
chain: QTIEENIKIFEEEEVEFISVPVPEFADSDPANIVHDFNKKLTAYLDLNLDKCYVIPLNTSIVMPPRNLLELLINIKAGTYLPQSYLIHEHMVITDRIENIDHLGFFIYRLCHDKETYKL
B3: NT-Bri2 BRICHOS: rh fusion protein: NT* solubility tag followed by human Bri2 residues 113-231 (protein, UniProt Q9Y287 113-231, looked up, fragment)
chain: B2 chain
modifications: NT* spider silk solubility tag
B4: Bri2 BRICHOS crude: recombinant human Bri2 BRICHOS (113-231) wild-type, crude solution (protein, UniProt Q9Y287 113-231, looked up, fragment)
chain: B2 chain
B5: Bri2 BRICHOS oligomers: recombinant human Bri2 BRICHOS (113-231) wild-type, oligomeric species (protein, UniProt Q9Y287 113-231, looked up, fragment)
chain: B2 chain
modifications: oligomers
notes: recombinant human Bri2 BRICHOS (113-231) wild-type, oligomeric species

Legend:
wild type mice = settings: mouse, in vivo, iv, 10 mg/kg
Procedure: Two different types of commercially available microbubbles, either Definity® (Lantheus Medical Imaging, MA, USA) or SonoVue® (Bracco, Milan, Italy) were administered at a dose of 5 μl/g body weight. For one part of the study (FIG. 3A), a total of […] mice were divided into four groups that received, respectively, i.v. injections of microbubbles and PBS (n=4), microbubbles and 1 (n=4), 10 (n=6) or 20 (n=4) mg/kg body weight of rh Bri2 BRICHOS-AU1 (SEQ ID NO: 11). In the second part of the study (FIG. 3B), a total of 3 mice were administered 20 mg/kg rh Bri2 BRICHOS-mCherry (SEQ ID NO: 12) (n=1) or microbubbles+20 mg/kg rh Bri2 BRICHOS-mCherry (n=2) intravenously. […]
96-well plates (Nunc MicroWell™) were coated with anti Bri2 BRICHOS capture antibody diluted in coating buffer (50 mM carbonate pH 9.6) and incubated overnight at 4° C. […] The reaction was stopped by adding stop solution for TMB substrates (Thermo Fisher) and absorbance was measured at 450 nm, using the values for brain homogenates from the non-treated mouse as blank. […]
Calculation of concentrations and total amounts of rh Bri2 BRICHOS-AU1 in each brain hemisphere was assessed by assuming a brain density of […], an average brain hemisphere weight of 225 mg and average of total protein in brain hemisphere homogenates of 25.6 mg.

hCMEC/D3 cells [1] = experiment: Cell uptake by western blot, hCMEC/D3; assay type: cell-based, human; settings: hCMEC/D3, 2 h and 24 h, western blot of cell lysate
Procedure: Once confluent, the hCMEC/D3 cells were treated with 1 μM rh Bri2 BRICHOS monomers, oligomers or proSP-C monomers for 2 h and 24 h. […] Untreated cells were used as control. After the treatment, the cells were lysed as described for the HEK-293 cells.

SH-SY5Y cells [2] = experiment: Cell uptake by western blot, SH-SY5Y; assay type: cell-based, human; settings: 24 h incubation, western blot band intensities of cell lysate
SH-SY5Y cells [3] = system: SH-SY5Y cells
Procedure: Human neuroblastoma (SH-SY5Y) cell line (ATCC, Manassas, Va.) was grown in Dulbecco's Modified Eagle's Medium (DMEM, PAN-Biotech, Germany) with 4.5 g/L glucose, glutamine (2 mM) and 3.7 g/L NaHCO3, supplemented with 10% Fetal Bovine Serum (FBS, Sera Plus, PAN-Biotech, Germany) and penicillin-streptomycin (100 IU/ml, 100 μg/ml) in TC-coated T75 tissue culture flasks.
(§1) Cell viability was assessed by tetrazolium-based Thiazolyl Blue Tetrazolium Bromide (MTT) assay. For the MTT assay, 50 000 cells/cm^2 were seeded onto clear 96-well plates (TC, Cellstar, Greiner Bio-One, Austria) and grown until confluent, after which the cells were treated with the rh BRICHOS domains in 8 replicates for 24 h in a humidified atmosphere (5% CO2/95% air) at 37° C. Treated cells were incubated with 0.5 mg/ml MTT (Sigma-Aldrich, St. Louis, Mo.) solution in FBS-free cell media for 4 h in a humidified atmosphere (5% CO^2/95% air) at 37° C. The MTT solution was removed and the formazan crystals were dissolved in Dimethyl sulfoxide (DMSO, Sigma-Aldrich, St. Louis, Mo.) and incubated with shaking for 15 min. Absorbance was measured at 570 nm using a FLUOstar OPTIMA microplate reader (BMG Lab Tech, Germany). Untreated cells were used as positive control, and media without cells was used as a negative control. Also 2 μM Staurosporine from Streptomyces sp. (SP, Sigma-Aldrich, St. Louis, Mo.) was used as a negative control.

hCMEC/D3 cells [4] = system: hCMEC/D3 cells
Procedure: hCMEC/D3 cells (MilliporeSigma, Burlington, Mass.) were cultivated in EndoGRO-MV Complete Media (MilliporeSigma, Burlington, Mass.), supplemented with 1 ng/ml recombinant human fibroblast growth factor basic (FGF-2, Gibco, Invitrogen, Waltham, Mass.) and penicillin-streptomycin (100 IU/ml, 100 μg/ml, Gibco, Thermo Fisher Scientific, Waltham, Mass.) in T75 tissue culture flasks (TC-coated, DeltaLab, Spain) coated with 5-10 μg/cm^2 rat tail collagen type I (MilliporeSigma, Burlington, Mass.).
as §1

hCMEC/D3 monolayer = system: hCMEC/D3 monolayer
Procedure: For the preparation of the hCMEC/D3 cell monolayers, transwell ethylene terephthalate (PET) membrane inserts (24-well, clear, pore size 0.4 μm, CellQART, SABEU GmbH & Co. KG, Germany) were coated with rat tail type I collagen (150 μg/ml in 1× Dulbecco's Phosphate-buffered saline pH 7.4, 1×DPBS, Gibco, Thermo Fisher Scientific, Waltham, Mass.) for 2 h at 37° C. […] Media was changed every second day and the cell monolayer was established by day 6.
Experiments were conducted on culture day 6 by adding different BRICHOS protein constructs, or relevant controls to the apical side of the hCMEC/D3 monolayer. […] After the incubation, medium on the apical and basolateral sides of the monolayer was removed and analyzed by Western blotting and the band intensities measured by ImageJ. […] For mCherry and mCherry-Bri2 BRICHOS monomers, fluorescence intensity of the apical and basolateral medium was recorded at λex 570 nm and λem 610 nm, after which the cells were fixed and analyzed by fluorescence microscopy to analyse the uptake of mCherry or mCherry-Bri2 BRICHOS into cells.
FITC fluorescence was measured at λex 492 nm and λem 518 nm. Insulin permeability was determined by western blot and an anti-Insulin monoclonal primary antibody (Sigma, St. Louis, Mo.) at 1:1000 dilution. […]

Molecule	percent of the total amount administered detected in the brain (wild type mice) [%]	cell uptake, result in words (hCMEC/D3 cells [1])	cell uptake, result in words (SH-SY5Y cells [2])	toxicity / cell mitochondrial activity, result in words (SH-SY5Y cells [3])	toxicity / cell mitochondrial activity, result in words (hCMEC/D3 cells [4])	hCMEC/D3 monolayer permeability, result in words (hCMEC/D3 monolayer)
B1	1	–	–	–	–	–
B2	–	taken up	linear uptake	no toxicity	no toxicity	–
B3	–	–	–	–	–	only the monomers show permeability
B4	–	–	–	slight decrease in the cell mitochondrial activity	slight decrease in the cell mitochondrial activity	–
B5	–	seem not to be taken up	detected in the cell lysate to a lesser degree	slight decrease in the cell mitochondrial activity	slight decrease in the cell mitochondrial activity	–
